Laboratory results reported in the supplement of paper PMC11865577.

Legend:
Test in all cases: pull-down binding Z-score (relative to library population); higher = stronger binding
[1] = test system: TO-N3-2 (biotin conjugate); conditions: RNA library: Library-2
Method in brief: (§1)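 Biotin-conjugated small molecule (100 pmol) on streptavidin beads was incubated with 1 μg of heat-folded Cy5- or Cy3-end-labelled RNA library in phosphate/NaCl/KCl buffer at 25 °C for 60 min. Following three washes, RNA was eluted with hot SDS and hybridised at 55.5 °C for 20 h to a DNA barcode microarray. The binding value is a Z-score computed from the library mean and standard deviation, after subtraction of beads without compound and averaging of barcoded replicate probes with the highest and lowest excluded.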

[2] = test system: TO-3-N3-2 (biotin conjugate); conditions: RNA library: Library-2
Method in brief: as §1

[3] = test system: TO-3-N3 (biotin conjugate); conditions: RNA library: Library-2
Method in brief: as §1

[4] = test system: TO-N3 (biotin conjugate); conditions: RNA library: Library-2
Method in brief: as §1

[5] = test system: G-clamp-N3 (biotin conjugate); conditions: RNA library: Library-1 (pre-miRNA loops + repeats)
Method in brief: as §1

Sequence	pull-down binding Z-score [1]	pull-down binding Z-score [2]	pull-down binding Z-score [3]	pull-down binding Z-score [4]	pull-down binding Z-score [5]
AGAUGAGUUUAUGUUUUAUCCAACU [hsa-mir-193b]	-0.135	-0.228	-0.608	-0.416	-1.8
UCACAGUUGGUUUCUGACACGUGG [hsa-mir-4535]	-0.0476	-0.0393	0.237	0.305	0.283
CUCAGAGGGCUGAAGUGGUUGUGGGGAGGGGCUUCUGGG [hsa-mir-4296]	4.01	4.91	4.7	4.83	1.39
UGUCUUUUUUUUUUUCUGAGACA [hsa-mir-1273c]	-1.36	0.127	-0.718	-1.21	-0.128
AGAACAUUCGUUCACUUUCCU [hsa-mir-6747]	-0.376	-0.29	-0.352	-0.404	-1.1
GGUUGGGGUGGGCUGCCUGUGGACCAAUC [hsa-mir-4525]	1.94	1.06	2.14	2.44	0.722
UCUAUCUGUAUUCUUACUGAAGGGA [hsa-mir-504]	-0.728	-0.42	-0.739	-0.937	0.763
UUUGCCUAUAAAAGUAAUGGCAAA [hsa-mir-548an]	-0.888	-0.19	-0.247	-0.512	0.207
CGGAGCAGUCACGUUGACGGAAUCCUCCG [hsa-mir-3183]	0.498	-0.255	0.234	0.329	0.489
CUGUGGUCUAACCUUUCCCAUCU [hsa-mir-6828]	0.334	0.125	-0.163	0.169	-1.45
CCCAGAGAAAGCCUGAACGUUGGG [hsa-mir-585]	0.386	0.0232	-0.148	0.119	-0.188
AUCAUAAUAAAGGUGUCAUGAU [hsa-mir-3682]	-0.694	-0.169	-0.489	-0.879	-0.55
GGACAGGGAUUCUUUUCACUGUU [hsa-mir-599]	0.0602	0.0302	-0.0902	0.141	1.08
AUGGUCUCUAUAUUUAUGAUGAUUAA [hsa-mir-889]	0.0111	0.373	0.533	0.577	-0.798
AUCAUCUCUCCCUUGGAU [hsa-mir-3683]	-0.446	-0.257	-0.626	-0.733	1.39
GGGGUUUUUGCCUCCAACUGACUCC [hsa-mir-155]	-0.135	-0.283	-0.366	-0.292	-0.504
CAGUGCUUUUAGAAAAUUUGUGUG [hsa-mir-581]	-0.187	0.00216	-0.514	-0.558	-0.904
CCAUAAGCUGUCUAAAACUUCG [hsa-mir-4513]	-0.0485	-0.153	-0.354	-0.327	-1.21
GGUAUGGAUUCUGUUGUUUUGGCAACAUUCU [hsa-mir-8088]	-0.244	0.124	-0.382	-0.328	0.269

Sequence	pull-down binding Z-score [1]	pull-down binding Z-score [2]	pull-down binding Z-score [3]	pull-down binding Z-score [4]	pull-down binding Z-score [5]
UAUUGCAAAGAUUUUCAAUA [hsa-mir-3915]	-1.1	-0.307	-0.611	-0.988	-0.191
UGUUUUUGCCAUUAAAAAUAAUGGCAUUAAAAGUAAUGGCAAAAACG [hsa-mir-548al]	-1.14	-0.431	-0.484	-1.01	-0.871
GUGGAGUCGGGUCAGACUUCAA [hsa-mir-378c]	0.384	-0.477	-0.461	-0.0868	-1.13
CUCGGGAGGCUGAG [hsa-mir-4419a]	0.147	-0.459	-0.569	-0.51	1.91
CAUUGUAAUAGUUCAUAUGGGCACUG [hsa-mir-3660]	0.0148	-0.109	-0.0141	0.0211	2.34
CCUUCUGCUUACAGGUAUUGGAAGG [hsa-mir-3158-1]	-0.685	-0.401	-0.281	-0.371	0.832
GGGGUGGCUGCGGGCCUUCUGAAGGUCUCCC [hsa-mir-662]	1.24	0.448	0.427	0.946	0.76
GCCGCGGAAGAAGGGGAAGCGC [hsa-mir-6720]	1.86	0.61	1.46	1.61	2.21
CAUGUAUGUGUAUAUACAUAUAUAUG [hsa-mir-297]	-0.648	-0.125	0.635	0.218	1.71
UUUGCCAAUAAAAGUAAUGACAAA [hsa-mir-548ah]	-0.39	0.181	0.507	0.226	-1.16
AUCAAGAAAAGAUUUGGUGUUCUUGAU [hsa-mir-4782]	-0.784	-0.112	-0.152	-0.513	1.36
UUUGCCAUUAAAAGUAAUGGUAAA [hsa-mir-548x-2]	-1.58	-0.616	-0.753	-1.29	-0.261
GGGGGUGGCCGGGGCUGACCCU [hsa-mir-939]	2.08	1.8	2.48	2.56	0.0126
CCCGAGGCCCUUCAUGCUGCCCAGCUCGGG [hsa-mir-486-1]	1.19	0.923	0.473	0.727	0.819
CUGGGGGAAGGCUCCAGACCCCAGCCU [hsa-mir-4267]	1.37	0.331	0.793	1.19	-0.401
CGUUGAGUGGGCACCCGAGAAGCCAUCG [hsa-mir-425]	1.51	0.25	0.0191	0.583	-0.628
CCUCGAAGCUGCCUUUAGAAAUGAGG [hsa-mir-4496]	0.142	-0.192	-0.0169	0.176	-0.107
UCCCAUUUCCACAUGGAGAGUGGAGCCCAGA [hsa-mir-3123]	0.671	0.0927	0.384	0.639	1.02
